Changes are numbered by the printed parent chain.
B1: Oryza sativa phytoene desaturase with C-terminal His6 (OsPDS-His6), wild type (enzyme, UniProt A2XDA1 88-578, looked up)
chain: AGQLSSFFRNSEQPTKPLQVVIAGAGLAGLSTAKYLADAGHKPILLEARDVLGGKIAAWKDEDGDWYETGLHIFFGAYPNIQNLFGELGINDRLQWKEHSMIFAMPNKPGEFSRFDFPETLPAPLNGIWAILRNNEMLTWPEKVKFALGLLPAMVGGQAYVEAQDGFTVSEWMKKQGVPDRVNDEVFIAMSKALNFINPDELSMQCILIALNRFLQEKHGSKMAFLDGNPPERLCMPIVDHVRSLGGEVRLNSRIQKIELNPDGTVKHFALTDGTQITGDAYVFATPVDILKLLVPQEWKEISYFKKLEKLVGVPVINVHIWFDRKLKNTYDHLLFSRSSLLSVYADMSVTCKEYYDPNRSMLELVFAPAEEWVGRSDTEIIEATMQELAKLFPDEIAADQSKAKILKYHVVKTPRSVYKTIPDCEPCRPLQRSPIEGFYLAGDYTKQKYLASMEGAVLSGKLCAQSVVEDYKMLSRRSLKSLQSEVPVAS
notes: residue numbers count on the immature protein A2XDA1.2 including the transit peptide; the GPC done here is described only as 'homooligomer'; Cloned through an NdeI site, so a start methionine probably precedes residue 88 (surmised); also called rice PDS-His6; wild type PDS; not shown: His6, C-terminal, kept
B2: Oryza sativa phytoene desaturase Arg300Ser mutant (Arg300Ser PDS) (enzyme, UniProt A2XDA1 88-578, looked up)
chain: B1 chain with R213S
notes: residue numbers count on the immature protein A2XDA1.2 including the transit peptide; Same construct as m1 apart from the mutation; about 70% in the FAD holo form, like the wild type; also called mutant enzyme Arg300Ser; source: E. coli, purified

Molecular target: the molecule itself
Experiment: SEC; gel permeation chromatography (GPC) of the purified protein on a Superose 6 10/300 GL column, elution monitored at 280 nm, carried out as in ref. 6

Row | Protein | binding result
1 | B1 | binds
2 | B2 | binds

Reference: PMC5703498, “Plant-type phytoene desaturase: Functional evaluation of structural implications” (PLoS ONE, 2017)
